Legend:
[1] = test system: bone marrow derived primary mouse macrophages; experiment: In vitro phagocytosis assay; assay type: cell-based; conditions: 5 ng/μl antibodies; p9305 beads for PRR13, p9304 beads for C6-17; versus isotype control mouse IgG2a
Experimental: Isolation and in vitro differentiation of macrophages was essentially performed as described e.g. in Zhang et al. 2008 [PMID: 19016445]. In brief, tibia- and femur-derived bone marrow cells from 8 to 12 weeks old BALB/c mice were divided onto 2-3 10 cm-cell culture dishes at a density of 20-30×10^6 cells per dish, differentiated 4 days in RPMI/10% FCS+P/S in the presence of 20 ng/ml M-CSF (RD-Systems, Cat-No: 416-ML-010), redistributed at day 5 into 24-well tissue culture plates at a density of 150.000 cells/well until day 9. 24 hrs before phagocytosis, cells were starved in 500 μl RPMI-media+10% FCS+P/S in absence of M-CSF. […] Antibody-coated fluorescent peptide-beads were subsequently added to differentiated macrophages for 1 hr at 37° C. (in a volume of 200 ul containing 0.5 ug beads/well) allowing for in vitro uptake by phagocytosis. After washing and scraping the cells in ice cold PBS, cells were washed in FACS-Buffer (1×PBS+1% BSA) and analysed for fluorescence signal by standard FACS procedure.

[2] = biological target: T1, recombinant 610 amino acids N-terminal Huntingtin fragment (recHTT610) (Homo sapiens, UniProt P42858, DUP37-38); experiment: Protein capture ELISA against recHTT610; assay type: binding; conditions: recHTT610 capture ELISA of preselected mAB candidates
T1 construct: the N-terminal 610 aminoacids of human Huntingtin protein extended by two C-terminal V5 tags; made in house; host or cells: HEK293 freestyle cells, transient transfection with precHTT610; NP-40 lysate captured on an anti-V5 coated plate
T1 sequence (P42858 with tags, fused parts or gaps DUP37-38): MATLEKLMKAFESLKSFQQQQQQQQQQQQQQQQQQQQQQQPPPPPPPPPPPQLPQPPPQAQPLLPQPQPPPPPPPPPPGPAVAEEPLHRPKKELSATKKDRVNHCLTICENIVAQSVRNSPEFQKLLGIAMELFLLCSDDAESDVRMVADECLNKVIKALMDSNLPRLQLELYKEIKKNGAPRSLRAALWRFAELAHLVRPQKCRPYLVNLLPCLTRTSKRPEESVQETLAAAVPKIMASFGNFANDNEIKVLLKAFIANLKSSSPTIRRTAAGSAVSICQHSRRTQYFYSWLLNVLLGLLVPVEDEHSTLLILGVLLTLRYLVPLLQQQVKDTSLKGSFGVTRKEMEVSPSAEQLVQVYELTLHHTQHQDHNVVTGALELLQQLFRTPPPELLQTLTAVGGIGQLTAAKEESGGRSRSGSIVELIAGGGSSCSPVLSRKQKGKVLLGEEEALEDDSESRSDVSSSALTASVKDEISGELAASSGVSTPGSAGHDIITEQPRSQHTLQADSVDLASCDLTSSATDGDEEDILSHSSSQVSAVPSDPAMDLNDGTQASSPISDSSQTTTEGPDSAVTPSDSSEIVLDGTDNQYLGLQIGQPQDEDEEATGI
Experimental: A DNA covering the coding region of the N-terminal 610 aminoacids of human Huntingtin protein extended by two C-terminal V5 tags were synthesized and cloned via XbaI and BamHI restriction sites into eukaryotic expression vector pCDH-EF1-MCS IRES Puro (SBI; CatNr. CD532A1) yielding plasmid precHTT610. Cloning procedures were performed according to standard molecular biology procedures essentially as indicated by manufacturers including restriction digestions and ligation reactions (NEB Quick ligase kit; CatNr. M2200L), bacterial transformation followed by clone selection and analysis. […] Protein concentrations were determined using Qubit (Invitrogen; CatNr.Q32866) according to the manufacturer's instructions.
Binding of antibodies to N-terminal fragment HTT610 was determined by a standard protein capture ELISA procedure using Maxisorb™ ELISA plates (Thermo; CatNr. 439454), coated with 50 μl of a 1:5000 rabbit anti V5 mAB (Sigma, CatNr. V8137), blocking with blocking buffer (PBS, 1% BSA, 0.1% Tween 20), capturing of recombinant Huntingtin from HEK cell extracts (100 ng/μl total protein) followed by incubation with several dilutions of mouse anti HTT sera (1:100; 1:300 and 1:900) or with mAB2166 as reference (diluted 1:2000; Millipore, Cat Nr. MAB2166) for 1 hour at RT. […]

[3] = test system: caspase 6 cleavage of target peptide spanning caspase region 586 of Huntingtin; experiment: In vitro caspase 6 cleavage inhibition assay; assay type: biochemical, human; conditions: affinity purified polyclonal antibodies 3 ng/μl, mAB C6-17 10 ng/μl; no protection = 100%
Experimental: Caspase 6 inhibition assays were performed using Maxisorb ELISA plates (Thermo; 439454) whereby 50 μl of 20 nM BSA-coupled peptide (as indicated in FIG. 18) was coated for 1 hour at RT followed by a one hour treatment with 150 μl blocking buffer (PBS, 1% BSA, 0.1% Tween 20), incubation for 1 hour at RT with affinity purified polyclonal sera (3 ng/μl) or affinity purified mABs (10 ng/μl) as indicated, respectively. After several washes with washing buffer (PBS, 0.1% BSA, 0.1% Tween 20), 5 U Caspase 6 enzyme (Enzo; BML SE170-5000) diluted in 1× Caspase 6 Buffer (BioVision; 1068-80) was added to each well and incubated for 30 min at 37° C. Quantification of the newly exposed epitope generated by caspase 6 peptide cleavage that reflected the extent of caspase accessibility was performed by ELISA as described in Example 1 using peptide p7564-induced antibodies for detection of the free C-terminal aspartic acid-containing epitope.

[4] = biological target: T2, recombinant Huntingtin fragment with free aspartic acid 586 at the C-terminus (HTT586) (Homo sapiens, UniProt P42858); experiment: Protein ELISA with recombinant Huntingtin HTT586 versus HTT610; assay type: binding; conditions: protein capture ELISA, normalized to mAB 2166
T2 construct: recombinant Huntingtin fragment with free aspartic acid 586 at the C-terminus
T2 sequence (P42858 1-584): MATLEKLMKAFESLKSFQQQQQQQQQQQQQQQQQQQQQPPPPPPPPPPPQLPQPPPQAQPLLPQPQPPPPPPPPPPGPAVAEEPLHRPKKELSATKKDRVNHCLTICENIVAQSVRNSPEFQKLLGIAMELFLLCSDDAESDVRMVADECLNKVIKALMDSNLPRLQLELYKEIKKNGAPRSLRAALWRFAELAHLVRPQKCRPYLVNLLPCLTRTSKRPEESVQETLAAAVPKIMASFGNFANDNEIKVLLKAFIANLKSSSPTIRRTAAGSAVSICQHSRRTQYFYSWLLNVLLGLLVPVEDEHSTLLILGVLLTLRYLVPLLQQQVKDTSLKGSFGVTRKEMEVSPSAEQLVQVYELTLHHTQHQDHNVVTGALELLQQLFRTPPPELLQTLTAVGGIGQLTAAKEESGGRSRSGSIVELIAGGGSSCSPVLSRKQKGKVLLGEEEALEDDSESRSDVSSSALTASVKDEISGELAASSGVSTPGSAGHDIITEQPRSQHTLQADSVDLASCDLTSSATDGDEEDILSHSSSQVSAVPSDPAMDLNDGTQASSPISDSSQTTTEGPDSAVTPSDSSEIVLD
Experimental: Binding of antibodies to N-terminal fragment HTT610 was determined by a standard protein capture ELISA procedure using Maxisorb™ ELISA plates (Thermo; CatNr. 439454), coated with 50 μl of a 1:5000 rabbit anti V5 mAB (Sigma, CatNr. V8137), blocking with blocking buffer (PBS, 1% BSA, 0.1% Tween 20), capturing of recombinant Huntingtin from HEK cell extracts (100 ng/μl total protein) followed by incubation with several dilutions of mouse anti HTT sera (1:100; 1:300 and 1:900) or with mAB2166 as reference (diluted 1:2000; Millipore, Cat Nr. MAB2166) for 1 hour at RT. ELISA incubations, washing and detection procedures were performed according to standard procedures.
FIG. 12: mAB M1D1 specifically recognizes recombinant Huntingtin fragment with free aspartic acid 586 at the C-terminus stronger than uncleaned recHTT610. Protein ELISA (performed as in Example 1) using recombinant Huntingtin with 610 and 586 amino acids length (HTT610 and HTT586, respectively). Values indicate the ratio of the mAB M1D1 signal (OD; protein capture ELISA as explained in Example 1) to the mAB 2166 control antibody signal. Values were normalized to reference mAB 2166 recognizing an internal epitope present in both fragments as protein loading control.

[5] = test system: Huntingtin-derived peptides (p6773, p7564, p6776 and caspase region 586 peptides); experiment: Peptide ELISA of hybridoma supernatants and monoclonal antibodies; assay type: binding, human
Experimental: Vaccine-induced immune responses in mice were determined by ELISA using heparin as anticoagulant. ELISA plates (Nunc Maxisorb) were coated with maleimide activated BSA as carrier to which Cystein containing peptides were coupled via stable thioether bonds. For titrations, plasma dilutions were added and peptide-specific antibodies were quantified by biotinylated anti-mouse IgG (Southern Biotech, CatNr. 1034-08) as detection antibody combined with Streptavidin-POD (Roche, CatNr. 1089153) and subsequent color reaction using ABTS. EC50 values were determined using curve fitting with a 4-parameter logistic using GraphPad Prism (GraphPad Software).
For the production and isolation of monoclonal antibodies, the ClonaCell-HY Hybridoma Cloning Kit (STEMCELL technologies, CatNr. 28411) was used according to the instructions of the manufacturer. In brief, hybridoma fusions were performed with myeloma cell line SP2-0 under HAT selection and supernatants were initially screened by peptide ELISA using the immunization peptide, respectively, and an irrelevant control peptide for background determination. […] Selected colonies were picked and analyzed by DNA sequencing on an ABI3130xl Genetic Analyzer.

signal to noise ratio (recHTT610-specific signal : HEK ctrl extracts) [2]	% cleavage of target peptide [3]	recognition of HTT586 versus recHTT610 (ratio of mAB signal to mAB 2166 control signal) [4]	p7564 to p6776 OD signal ratio ([5]; specificity against cleaved peptide p7564, preselected mABs)	Molecule	phagocytosis of peptide-coated beads (FACS) [1]	recognition of caspase region 586 peptides (OD) ([5]; mAB concentration 1 ng/μl, peptides p7564, p7562, p7552, p7541, p7567, p7568, p7605, p6777)
best signal to noise ratio	reduce cleavage			C6-17: monoclonal antibody, mouse IgG2a, generated by hybridoma technique using peptide p7543 as immunogen; VH/VL SEQ ID No. 60/61 (antibody, antibody sequence) VH: MGWSCIMLFLLSGTAGVLSEVQLQQSGPELVKPGASVKISCKTSGYTFTEYTMHWVKQSHGKSLEWIGGINPNNGGTRYNQKFKGKATLTVDRSSSTAYMELRSLTSEDSAVYYCASLDGRDYWGQGTTLTVSSAKTTAPSVFPLA light: MVLMLLLLWVSGTCGDIVMSQSPSSLAVSAGEKVTMSCKSSQSLLNSRTRKNYLAWYQQKPGQSPKLLIYWASTRESGVPDRFTGSGSGTDFTLTISSVQAEDLAVYSCKQSYNLLTFGAGTKLELKRADAAPTVSIFPPSSEQLTSGGASVVCFLNNFYPK	increased phagocytosis of beads	
				PRR13: monoclonal antibody, mouse IgG2a, generated by hybridoma technique using peptide p6773 as immunogen; VH/VL SEQ ID No. 62/63 (antibody, antibody sequence) VH: MGWSWVMLFLLSGTGGVLSEVQLQQSAPELVKPGASVKMSCKASGYSFTDFYMKWVKQSHGKGLEWIGDIDPKNGDTFYNQKFKGRATLTVDKSSSTAYMQLNSLTTEDSAVYYCATYYGYTMDYWGQGTSVTVSSAKTTAPSVYPLAPVCGDTTGSSVTLGCLVKGYF light: MDFQVQIFSFLLISASVIMSRGQIVLTQSPAIMSASLGERVTMTCTASSSVTSSYLHWYQQKPGSSPKLWIYSTSNLASGVPARFSGSGSGTSYSLTISSMEAEDAATYYCHQYRRPPRTFGGGTKLEIKRADAAPTVSIFPPSSEQLTSGGASVVCFLNNFYPR	increased phagocytosis of beads	
		stronger	most favorable	M1D1: monoclonal antibody, mouse IgM, generated using peptide p7564 as immunogen; VH/VL SEQ ID No. 64/65 (antibody, antibody sequence) VH: MDFGLSWVFFVVFYQGVHCEVQLVESGGGLVQPKGSLKLSCAASGFTFNTYAMNWVRQAPGKGLEWVARIRSKSNNYATYYADSVKDRFTISRDDSQSMLYLQMNNLKTEDTAMYYCVRHGEYGNPWFAYWGQGTLVTVSAESQSFPNVFPL light: MKLPVRLLVLMFWIPASSSDVVMTQTPLSLPVSLGDQASISCRSSQSLVHSNGNTYLHWYLQKPGQSPKLLIYKVSNRFSGVPDRFSGSGSGTDFTLKISRVEAEDLGVYFCSQSTHVPYTFGGGTKLEIKRADAAPTVSIFPPSSEQLTSGGASVVCFLNNFYPK		recognizes Huntingtin peptides from the caspase 6 cleavage region of at least 7AA length containing free C-terminal Aspartic Acid
